# Source: patent US20220010003A1 (Boehringer Ingelheim, published 2022)
# Residue numbers refer to the chain shown, from its start. Numbers in names are those of the source.
# T1: recombinant mouse periostin (mouse, UniProt Q62009-2 24-811, limits assumed)
# T1 sequence (looked up): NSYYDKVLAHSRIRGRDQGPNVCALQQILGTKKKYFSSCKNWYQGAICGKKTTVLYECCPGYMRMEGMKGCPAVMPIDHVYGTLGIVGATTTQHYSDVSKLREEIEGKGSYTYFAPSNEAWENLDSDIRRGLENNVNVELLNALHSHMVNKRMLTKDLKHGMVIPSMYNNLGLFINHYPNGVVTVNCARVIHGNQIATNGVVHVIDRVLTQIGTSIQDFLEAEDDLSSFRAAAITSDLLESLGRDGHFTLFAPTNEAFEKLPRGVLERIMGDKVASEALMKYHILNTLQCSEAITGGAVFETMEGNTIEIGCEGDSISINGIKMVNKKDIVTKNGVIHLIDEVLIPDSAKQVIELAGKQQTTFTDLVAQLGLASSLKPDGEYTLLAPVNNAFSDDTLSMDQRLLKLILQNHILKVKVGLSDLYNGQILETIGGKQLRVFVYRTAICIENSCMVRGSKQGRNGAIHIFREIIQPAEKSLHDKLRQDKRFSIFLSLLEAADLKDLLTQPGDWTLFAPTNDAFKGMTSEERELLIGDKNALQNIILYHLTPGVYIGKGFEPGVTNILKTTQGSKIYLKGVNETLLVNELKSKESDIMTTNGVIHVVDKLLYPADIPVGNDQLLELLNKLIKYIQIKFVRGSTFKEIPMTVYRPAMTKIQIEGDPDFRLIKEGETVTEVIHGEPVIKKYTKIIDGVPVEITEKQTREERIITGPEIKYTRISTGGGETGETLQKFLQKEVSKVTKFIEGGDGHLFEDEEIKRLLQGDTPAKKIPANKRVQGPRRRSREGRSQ
# T2: recombinant human periostin (human, UniProt Q15063 22-836)
# T2 sequence: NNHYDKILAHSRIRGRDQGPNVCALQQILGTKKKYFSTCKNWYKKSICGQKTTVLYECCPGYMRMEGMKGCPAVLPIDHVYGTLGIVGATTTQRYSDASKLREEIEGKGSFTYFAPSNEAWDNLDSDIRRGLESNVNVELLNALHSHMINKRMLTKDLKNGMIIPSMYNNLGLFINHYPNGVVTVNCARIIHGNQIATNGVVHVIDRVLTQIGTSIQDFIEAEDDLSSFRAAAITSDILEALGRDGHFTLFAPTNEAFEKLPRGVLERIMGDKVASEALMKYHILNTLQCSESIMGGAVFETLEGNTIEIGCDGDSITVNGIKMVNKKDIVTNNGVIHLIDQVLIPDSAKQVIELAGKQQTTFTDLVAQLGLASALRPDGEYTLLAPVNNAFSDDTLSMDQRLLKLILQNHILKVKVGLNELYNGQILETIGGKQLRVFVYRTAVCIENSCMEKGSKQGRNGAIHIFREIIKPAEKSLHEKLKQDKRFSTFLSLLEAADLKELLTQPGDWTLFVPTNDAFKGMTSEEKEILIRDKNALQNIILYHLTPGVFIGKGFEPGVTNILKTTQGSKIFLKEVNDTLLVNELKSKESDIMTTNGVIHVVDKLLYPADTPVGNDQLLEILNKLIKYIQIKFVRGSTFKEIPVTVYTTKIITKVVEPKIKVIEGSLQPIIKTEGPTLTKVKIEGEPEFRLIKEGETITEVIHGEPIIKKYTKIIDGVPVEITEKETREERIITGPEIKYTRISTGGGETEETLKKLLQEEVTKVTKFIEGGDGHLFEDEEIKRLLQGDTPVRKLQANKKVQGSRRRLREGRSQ
# B1: NB1011 (N55T) (antibody, V domains shown)
# VH: QVQLVQSGAEVKKPGASVKVSCKASGYTFTSYGISWVRQAPGQGLEWMGWISAYTGNTNYAQKLQGRVTMTTDTSTSTAYMELRSLRSDDTAVYYCARDMLVVPFDYWGQGTLVTVSS
# VL: QSVLTQSSSASGTPGQTVTVSCSGSSSDIGSNRVNWYQQLPGTAPKLLIYSNDQRPSGVPDRFSGSKSGTSASLAISGLQSADEADYYCAAWDDSLSTYVFGSGTKVTVL
# notes: Variant of NB0828 (IgG4PAA parent); the isotype of the variant is not restated
# B2: NB1015 (N55D) (antibody, V domains shown)
# VH: B1 VH with T55D
# VL: B1 VL
# notes: as for B1
# B3: NB1003 (N55S) (antibody, V domains shown)
# VH: B1 VH with T55S
# VL: B1 VL
# notes: as for B1
# B4: NB1014 (N55T_M100V) (antibody, V domains shown)
# VH: B1 VH with M100V
# VL: B1 VL
# notes: Double mutant of NB0828 (IgG4PAA parent); the isotype of the variant is not restated
# B5: NB1010 (N55Q) (antibody, V domains shown)
# VH: B1 VH with T55Q
# VL: B1 VL
# notes: as for B1
# B6: NB1012 (N55S_M100I) (antibody, V domains shown)
# VH: B1 VH with T55S, M100I
# VL: B1 VL
# notes: as for B4
# B7: NB0627 (antibody, human IgG1, V domains shown)
# VH: B1 VH with T55N
# VL: B1 VL
# Target: T1, recombinant mouse periostin
# Experiment: cell-based or functional assay
row,Binder,CAA IC50 [nM]
1,B1,22.3
2,B2,20.9
3,B3,14.9
4,B4,65.1
5,B5,19.6
6,B6,42.3

# Target: T2, recombinant human periostin
# Experiment: cell-based or functional assay
row,Binder,CAA IC50 [nM]
1,B1,15
2,B2,13.6
3,B3,10.8
4,B5,7.97

# Target: T1, recombinant mouse periostin
# Experiment: binding ELISA, periostin coated
row,Binder,EC50 [nM]
1,B1,0.07
2,B2,0.18
3,B3,0.08
4,B4,19.3
5,B5,0.1
6,B6,4.42

# Target: T2, recombinant human periostin
# Experiment: binding ELISA, periostin coated
row,Binder,EC50 [nM]
1,B1,0.07
2,B2,0.12
3,B3,0.08
4,B4,9.47
5,B5,0.08
6,B6,2.28

# Target: T2, recombinant human periostin
# Experiment: cell-based or functional assay
# Remark: another data set of the same source
row,Binder,"IC50 (nM), cell attachment assay [nM]"
1,B7,22.4

# Target: T1, recombinant mouse periostin
# Experiment: ELISA, periostin coated, anti-human Fc-HRP; the clone is named in Table 2
row,Binder,EC50 [nM]
1,B7,< 1

# Target: T2, recombinant human periostin
# Experiment: as above
row,Binder,EC50 [nM]
1,B7,< 1
